This assay concerns the target horse-heart mitochondrial cytochrome c (horse) (UniProt P00004). The assay is described as follows: cell-based or functional assay.
UniProt P00004, sequence (P00004 2-105 limits assumed): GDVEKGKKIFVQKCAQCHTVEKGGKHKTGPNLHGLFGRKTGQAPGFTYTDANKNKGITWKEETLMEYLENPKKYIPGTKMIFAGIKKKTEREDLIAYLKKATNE

The substance “Photosystem II with variant D1 protein D1-K238E, in thylakoid membranes isolated from the Synechocystis sp. PCC 6803 Glu mutant strain (from UniProt P16033 1-344)” showed a rate of cc reduction (light-dependent, increase of the cc alpha peak at 550 nm), with DCMU (µmol/(mg chl·h)) of 20 and a rate of cc reduction (light-dependent, increase of the cc alpha peak at 550 nm), without DCMU (µmol/(mg chl·h)) of 12.
